Assay [1] has as its target T1, cynomolgus monkey Dectin-1 expressed on monocytes (cynomolgus monkey, UniProt A0A2K5UXY6 35-281).
T1 construct: whole, on cells; also called cynomolgus Dectin-1; cyno Dectin-1
T1 sequence: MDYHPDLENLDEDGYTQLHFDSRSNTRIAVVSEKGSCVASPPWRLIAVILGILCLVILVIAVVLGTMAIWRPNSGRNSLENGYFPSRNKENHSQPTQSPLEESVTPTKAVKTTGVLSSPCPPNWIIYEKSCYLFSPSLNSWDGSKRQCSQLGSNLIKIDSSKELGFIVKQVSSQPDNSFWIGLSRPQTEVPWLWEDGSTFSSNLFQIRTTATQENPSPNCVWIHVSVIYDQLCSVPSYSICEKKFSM
Kind of assay: flow cytometry, cynomolgus monocytes. In general terms: A flow cytometer gives signals particle by particle.
Experimental: (§1) Binding of Dectin-1 antibodies to Dectin-1 expressing cells Dectin-1 expressing cells (HEK Blue hDectin-1-a, HEK Blue hDectin-1-b, HEK293F hDectin-1 a FL, human monocytes or cyno monocytes) were plated at 1×10⁵-2×10⁵ cells per well in non-tissue culture treated, 96 well V bottom plates. Additionally, human monocytes were incubated in human FcgR blocking antibody (Biolegend, San Diego, CA) for 10 minutes at room temperature to reduce binding of the antibodies to the Fc receptor.
(§2) For detection of mouse primary antibodies, the cells were incubated with a fluorescently labeled AF647 anti-mouse Fc-specific secondary antibody (Jackson Immuno). […] Data acquisition was performed using a CytoFlex flow cytometer (Beckman Coulter, Atlanta, GA) and analyzed using Graphpad Prism 8.4.
The binding was assessed by flow cytometry analysis of cynomolgus monkey monocytes derived from PBMCs.

The target in assay [2] is T2, human Dectin-1 isoform A (human, UniProt Q9BXN2 1-247).
T2 construct: also called hDectin-1a; Dectin-1 on HEK-Blue hDectin-1a cells
T2 sequence: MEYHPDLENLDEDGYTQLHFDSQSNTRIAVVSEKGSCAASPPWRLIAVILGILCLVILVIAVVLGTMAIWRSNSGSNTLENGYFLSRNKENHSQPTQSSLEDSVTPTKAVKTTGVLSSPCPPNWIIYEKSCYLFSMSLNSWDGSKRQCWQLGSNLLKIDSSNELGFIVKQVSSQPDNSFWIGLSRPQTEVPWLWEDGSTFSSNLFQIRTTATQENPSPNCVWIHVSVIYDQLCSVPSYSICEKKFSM
Put plainly: flow cytometry on HEK-Blue hDectin-1a cells.
Experimental: as §1, §2

Assay [3] has as its target T3, human Dectin-1 isoform B (human, UniProt Q9BXN2 1-247).
T3 construct: also called hDectin-1b; Dectin-1 on HEK Blue hDectin-1-b cells
T3 sequence: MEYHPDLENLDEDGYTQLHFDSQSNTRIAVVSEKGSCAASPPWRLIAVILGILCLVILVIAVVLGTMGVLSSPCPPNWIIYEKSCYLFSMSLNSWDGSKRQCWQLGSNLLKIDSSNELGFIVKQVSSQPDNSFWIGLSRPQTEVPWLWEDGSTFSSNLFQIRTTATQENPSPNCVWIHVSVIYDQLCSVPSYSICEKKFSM
Kind of assay: flow cytometry on HEK-Blue hDectin-1b cells.
Experimental: as §1, §2

The target in assay [4] is T2, human Dectin-1 isoform A. Kind of assay: flow cytometry on HEK293F hDectin-1a FL cells.
Experimental: as §1, §2
The target of assay [5] is T2, human Dectin-1 isoform A. Kind of assay: flow cytometry on HEK-Blue hDectin-1a cells (summary table).
Experimental: as §1, §2
In assay [6] the target is T3, human Dectin-1 isoform B. Put plainly: flow cytometry on HEK-Blue hDectin-1b cells (summary table).
Experimental: as §1, §2
Assay [7] concerns the target T2, human Dectin-1 isoform A. Kind of assay: flow cytometry on HEK293F hDectin-1a FL cells (summary table).
Experimental: as §1, §2
A further assay addresses T4, Nectin-4 (UniProt Q96NY8 32-510, limits assumed).
T4 construct: whole, on cells; also called PVRL4; Nectin-4 on A431 cells
T4 sequence (looked up): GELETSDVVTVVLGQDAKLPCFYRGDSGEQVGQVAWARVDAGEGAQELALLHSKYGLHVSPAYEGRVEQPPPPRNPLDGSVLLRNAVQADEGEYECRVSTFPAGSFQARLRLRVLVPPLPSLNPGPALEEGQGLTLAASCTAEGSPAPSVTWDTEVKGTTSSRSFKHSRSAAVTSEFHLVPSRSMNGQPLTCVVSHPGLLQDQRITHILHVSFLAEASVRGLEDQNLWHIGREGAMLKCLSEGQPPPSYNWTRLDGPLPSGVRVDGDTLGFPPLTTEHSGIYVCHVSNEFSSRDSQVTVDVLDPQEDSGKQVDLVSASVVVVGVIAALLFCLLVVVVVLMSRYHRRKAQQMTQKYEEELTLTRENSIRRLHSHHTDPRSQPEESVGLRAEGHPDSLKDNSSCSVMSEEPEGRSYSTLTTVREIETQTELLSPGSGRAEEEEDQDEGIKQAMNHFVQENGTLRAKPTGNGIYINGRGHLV
Put plainly: flow cytometry on Nectin-4-expressing A431 cells (lower panel), AF647 goat anti-human IgG secondary, 4PL fit; curve still rising (about 92,000 MFI) at 300 nM, no plateau.

In assay [8] the target is T2, human Dectin-1 isoform A. Kind of assay: flow cytometry, HEK-Blue hDectin-1a cells.
Experimental: as §1, §2

Experimental for Nectin-4: The secondary antibody (AF647 goat Anti-human IgG) was used for detection by flow cytometry. Binding EC50 values were determined using four parameter logistic (4PL) non-linear regression.

B1: anti-human Dectin-1 antibody clone 2M24 (mIgG1) (antibody, V domains shown)
VH: QVQLVQSGAEVKKPGASVKVSCKSSGYTFTDYYIHWVRQAPGQGLEWMGWINPNSGDTNYAQKFQGRITMTRDTSISTAYLELSRLRSDDTAVFYCARNSGSYSFGYWGQGTLVTVSS
VL: DIQMTQSPSSVSASVGDRVTITCRASQGISSWLAWYQQKPGKAPKLLIFGASSLQSGVPSRFSGSGSGTDFTLTVSSLQPEDFATYYCQQAYSFPFTFGPGTKVDIE
notes: hybridoma antibody with human variable and mouse constant domains (mIgG1); also called 2M24 clone; mIgG1 2M24
Consider B1, for which the EC50 in assay [1] was 0.3 nM; with human Dectin-1 isoform A [2] it was 0.4 nM; with human Dectin-1 isoform B [3], 1 nM; with human Dectin-1 isoform A [4] it was 1.1 nM; with human Dectin-1 isoform A [5], 0.4 nM; with human Dectin-1 isoform B [6], 1 nM. This molecule also yielded an EC50 with human Dectin-1 isoform A [7] of 1.1 nM.

B2: 2M24/Nectin-4 hIgG1 bispecific antibody (bispecific antibody, V domains shown)
VH 1: QVQLVQSGAEVKKPGASVKVSCKSSGYTFTDYYIHWVRQAPGQGLEWMGWINPNSGDTNYAQKFQGRITMTRDTSISTAYLELSRLRSDDTAVFYCARNSGSYSFGYWGQGTLVTVSS
VL 1: DIQMTQSPSSVSASVGDRVTITCRASQGISSWLAWYQQKPGKAPKLLIFGASSLQSGVPSRFSGSGSGTDFTLTVSSLQPEDFATYYCQQAYSFPFTFGPGTKVDIE
VH 2: EVQLVESGGGLVQPGGSLRLSCAASGFTFSSYNMNWVRQAPGKGLEWVSYISSSSSTIYYADSVKGRFTISRDNAKNSLSLQMNSLRDEDTAVYYCARAYYYGMDVWGQGTTVTVSS
VL 2: DIQMTQSPSSVSASVGDRVTITCRASQGISGWLAWYQQKPGKAPKFLIYAASTLQSGVPSRFSGSGSGTDFTLTISSLQPEDFATYYCQQANSFPPTFGGGTKVEIK
notes: human IgG1; DuetMab mutations F126C and C220V (heavy), S121C and C214V (light)
As for B2, in the assay with Nectin-4, the EC50 is around 32 nM.

B3: fully human 2M24 anti-Dectin-1 antibody (hIgG4) (antibody, V domains shown)
VH: QVQLVQSGAEVKKPGASVKVSCKSSGYTFTDYYIHWVRQAPGQGLEWMGWINPNSGDTNYAQKFQGRITMTRDTSISTAYLELSRLRSDDTAVFYCARNSGSYSFGYWGQGTLVTVSS
VL: DIQMTQSPSSVSASVGDRVTITCRASQGISSWLAWYQQKPGKAPKLLIFGASSLQSGVPSRFSGSGSGTDFTLTVSSLQPEDFATYYCQQAYSFPFTFGPGTKVDIE
notes: human IgG4; also called 2M24 (hIgG4); hIgG4 2M24
For B3, a half-maximal effect with human Dectin-1 isoform A [8] (EC50) was put at 1.6 nM.

By EC50 is commonly meant the midpoint of the concentration-response curve.

The record behind these values is patent publication US20250230247A1 (DREN BIO, published 2025).
